Experimental data published in paper PMC4851618, “Structural dynamics of a methionine γ-lyase for calicheamicin biosynthesis: Rotation of the conserved tyrosine stacking with pyridoxal phosphate” (Structural Dynamics, 2016).

Target: the molecule itself
Test: crystal structure; sitting drop, 11 mg/ml protein with 1 mM PLP, 12% w/v PEG 20000, 0.1 M MES pH 6.5, 289 K; SAD, 2.10 Å, space group I222; quaternary assembly calculated by PISA

B1: CalE6, PLP-dependent methionine γ-lyase from Micromonospora echinospora (D7G variant, selenomethionine labeled) (enzyme, UniProt Q8KNG3 1-381, looked up)
chain: MSGMRFGTRLVHGGRRPSAGTGDVVPPIHVSTTYERRAQDEPRYFYGRGENPTREELEECLAGLERAPFATVFSSGQAAAATLLSLVRPGQCVVSTDDVYAGTDGLFDLAARQGVRVRYADLTTPEGIAAALAEPDLALVWIETPTNPLLTVVDVAEVSRRAHERGARVVVDNTFASPVLQQPLALGADVSLYSTTKSIAGHADVLGGALVYRDADLHAAVRAYRTTAGNVPGALDCFLVRRGLHTLSLRVHRQVATARVLVERLRASPVVGAVHYPGLPEHPQHAVVKAQMSAPGAIVSFDYLGGPAERLLDRFTLFTCGVSLGGVHSLVECPALMTHRPLSAEARARRGIGESLIRLSVGIEDPQDLAEDLSRALAGGT
modifications: selenomethionine in place of methionine; Lys 197 bound covalently to PLP (Schiff base, residue LLP 197)
notes: The printed fusion scheme (ENLYFQ/SNA-TARGET) leaves SNA before the protein after TEV cleavage; The forward primer begins the target with GTG (AGC GGT ATG CGC TTC GAC follow), so the first residue behind SNA may be Val, not Met; Crystallised with 1 mM PLP; also called CalE6-MES complex; CalE6 holoenzyme; source: E. coli BL21(DE3), selenomethionine labeled, purified (Ni-NTA, TEV cleavage, …)
- stoichiometry N: 4
